Data from article PMC8920075.

Target: Omikron (Botswana, B.1.1.529) RBD (SARS-CoV-2 (Omicron, B.1.1.529)) (UniProt P0DTC2)
Assay: ELISA

REGN10933 (Casirivimab) (antibody)
EC50: 39.4 nM
